Assay [1] addresses T1, human EGFR, recombinant protein (human, UniProt P00533 25-645).
T1 construct: also called hEGFR
Description: method not stated.

Assay [2] concerns the target T1, human EGFR, recombinant protein. The assay can be described thus: protein based binding; method not stated.
The next assay concerns the target Cyno EGFR (cynomolgus, UniProt A0A2K5WK39 25-645). Description: protein based binding; method not stated.
A further assay addresses membrane EGFR on cells (human, UniProt P00533 25-1210). The assay can be described thus: cell-based or functional assay.
Assay [3] deals with T2, human PD-L1, recombinant protein (human, UniProt Q9NZQ7 19-239, limits assumed).
T2 construct: also called rhPD-L1; PD-L1-his
Description: SPR. (In general: In SPR one partner is held on a chip, and binding of the other changes the refractive index at the surface.)

The target of assay [4] is T3, c-Met, recombinant protein (human, UniProt P08581 25-932, limits assumed).
T3 construct: also called human cMet; cMet-his
Description: SPR.

A further assay has as its target VEGF (UniProt P15692-4 27-191, limits assumed). The assay can be described thus: method not stated.
Assay [5] addresses T4, CD3 on the cell surface of Jurkat cells (human, UniProt P07766 23-207).
T4 construct: whole, on cells; CD3 is a complex of several chains; also called CD3 (Jurkat)
Description: FACS on Jurkat cells, 100 nM.
Description: Briefly, 5×10⁵ cells were washed in ice-cold PBS and blocked with 2% FBS on ice for 1 hr. Cells were incubated with antibody, FIT-Ig (100 nM), or isotype control on ice for 1 hr and washed 3 times with PBS. […] Samples were analyzed in FACs calibur.

Assay [6] concerns the target T2, human PD-L1, recombinant protein. The assay can be described thus: method not stated.
For assay [7] the target is unchanged. The assay can be described thus: SPR Biacore X100, antigen immobilised on CM5, Ig injected.
Description: Affinity measurement by surface plasmon resonance: The kinetics of FIT-Ig binding to rhPD-L1 and rhPD-1 was determined by surface plasmon resonance with a Biacore X100 instrument (Biacore AB, Uppsala, Sweden) using HBS-EP (10 mM HEPES, pH 7.4, 150 mM NaCl, 3 mM EDTA, and 0.005% surfactant P20) at 25° C. Briefly, for rhPD-L1 and rhPD-1 was directly immobilized at 40 RU across a CM5 research grade biosensor chip using a standard amine coupling kit according to manufacturer's instructions. Rate constants were derived by making kinetic binding measurements at seven different antigen concentrations ranging from 1 to 40 nM. The equilibrium dissociation constant (M) of the reaction between FIT-Ig and the target proteins was then calculated from the kinetic rate constants by the following formula: KD=koff/kon. Aliquots of FIT-Ig/Ab samples were also simultaneously injected over a blank reference and reaction CM surface to record and subtract any nonspecific binding background to eliminate the majority of the refractive index change and injection noise. Surfaces were regenerated with two subsequent 25 ml injections of 10 mM Glycine (pH 1.5) at a flow rate of 10 μL/min.
Assay [8] deals with T4, CD3 on the cell surface of Jurkat cells. Description: FACS on Jurkat cells, Alexa Fluor 488 anti-human IgG1, MFI.
Description: Raji cell was used for detecting human B cell binding. […] Cells were washed in PBS buffer containing 2% FBS. […] Cells were washed and signal was detected with a BD FACSVerse flow cytometer according to manufacture's protocols.
For assay [9], the target named is T5, CD22 on Raji and Daudi cells (human, UniProt P20273).
T5 construct: on the cell surface of the human B cell lines Raji and Daudi; the sheet names only the cell lines (Raji, Daudi); CD22 is the target that the text gives for Epratuzumab
The assay can be described thus: FACS on Raji cells, Alexa Fluor 488 anti-human IgG1, MFI; the curve reaches only about 130 MFI.
Description: Cells were washed in PBS buffer containing 2% FBS. […] Cells were washed and signal was detected with a BD FACSVerse flow cytometer according to manufacture's protocols.

Broadly, the Kd is the free concentration of one partner at which half of the binding sites on the other are occupied at equilibrium, for simple one-to-one binding. Usually EC50 stands for the concentration needed to bring the measured effect to its halfway point. Low readings indicate higher potency in that assay, high ones lower potency in that assay.

T2 sequence (Q9NZQ7 19-239 limits assumed): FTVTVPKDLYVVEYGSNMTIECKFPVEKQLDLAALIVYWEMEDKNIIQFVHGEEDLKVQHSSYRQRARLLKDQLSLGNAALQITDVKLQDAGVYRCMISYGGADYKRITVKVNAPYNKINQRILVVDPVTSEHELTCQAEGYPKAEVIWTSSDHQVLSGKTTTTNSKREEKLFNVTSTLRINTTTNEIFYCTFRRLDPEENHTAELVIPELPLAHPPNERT
Chain of VEGF (P15692 other isoform, or with tags, fused parts or gaps limits assumed): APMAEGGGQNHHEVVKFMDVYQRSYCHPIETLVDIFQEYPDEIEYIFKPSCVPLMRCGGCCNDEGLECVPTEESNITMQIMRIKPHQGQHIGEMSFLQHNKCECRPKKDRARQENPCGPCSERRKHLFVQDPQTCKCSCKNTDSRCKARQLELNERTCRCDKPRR
T3 sequence (P08581 25-932 limits assumed): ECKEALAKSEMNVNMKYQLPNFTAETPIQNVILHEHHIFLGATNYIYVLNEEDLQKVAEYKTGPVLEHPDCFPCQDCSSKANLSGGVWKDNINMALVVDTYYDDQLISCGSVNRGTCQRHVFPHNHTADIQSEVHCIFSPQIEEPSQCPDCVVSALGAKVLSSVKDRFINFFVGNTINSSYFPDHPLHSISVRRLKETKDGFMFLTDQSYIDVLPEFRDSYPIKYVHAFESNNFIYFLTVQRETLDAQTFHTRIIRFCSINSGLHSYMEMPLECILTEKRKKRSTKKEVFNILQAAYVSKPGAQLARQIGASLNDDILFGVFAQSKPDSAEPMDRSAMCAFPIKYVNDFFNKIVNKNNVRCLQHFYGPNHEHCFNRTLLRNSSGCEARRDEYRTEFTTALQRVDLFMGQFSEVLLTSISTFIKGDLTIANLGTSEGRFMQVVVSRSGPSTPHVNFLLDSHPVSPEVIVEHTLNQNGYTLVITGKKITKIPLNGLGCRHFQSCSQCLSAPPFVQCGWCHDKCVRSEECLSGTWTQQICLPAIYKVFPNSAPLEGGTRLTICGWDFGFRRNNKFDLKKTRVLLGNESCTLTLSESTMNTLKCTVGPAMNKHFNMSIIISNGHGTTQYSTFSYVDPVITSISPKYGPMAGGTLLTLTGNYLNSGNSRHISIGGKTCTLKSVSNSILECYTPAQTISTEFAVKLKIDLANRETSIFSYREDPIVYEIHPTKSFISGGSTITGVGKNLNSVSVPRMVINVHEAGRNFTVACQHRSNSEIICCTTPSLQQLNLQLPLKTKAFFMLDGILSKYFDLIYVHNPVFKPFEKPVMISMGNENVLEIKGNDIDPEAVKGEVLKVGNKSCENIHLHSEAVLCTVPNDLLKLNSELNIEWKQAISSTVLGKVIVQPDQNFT

B1: FIT019b-Ig EGFR (Panitumumab)/HER3 (patritumab) (bispecific antibody, human IgG1, kappa)
chain 1: not shown
chain 2: QVQLQESGPGLVKPSETLSLTCTVSGGSVSSGDYYWTWIRQSPGKGLEWIGHIYYSGNTNYNPSLKSRLTISIDTSKTQFSLKLSSVTAADTAIYYCVRDRVTGAFDIWGQGTMVTVSSASTKGPSVFPLAPSSKSTSGGTAALGCLVKDYFPEPVTVSWNSGALTSGVHTFPAVLQSSGLYSLSSVVTVPSSSLGTQTYICNVNHKPSNTKVDKKVEPKSC
chain 3: not shown
notes: leader left out
B1: the equilibrium dissociation constant (Kd) in [1] was 0.338 nM.

B2: FIT013a cMet (h1332 (13.3.2L-A91T,H-42K,S97T))/EGFR (panitumumab) (bispecific antibody, human IgG1, kappa)
chain 1: not shown
chain 2: QVQLVQSGAEVKKPGASVKVSCKASGYTFTSYGFSWVRQAPGQGLEWMGWISASNGNTYYAQKLQGRVTMTTDTSTSTAYMELRSLRSDDTAVYYCARVYADYADYWGQGTLVTVSSASTKGPSVFPLAPSSKSTSGGTAALGCLVKDYFPEPVTVSWNSGALTSGVHTFPAVLQSSGLYSLSSVVTVPSSSLGTQTYICNVNHKPSNTKVDKKVEPKSC
chain 3: not shown
notes: leader left out; also called FIT013a (c-met/EGFR)
B2: the Kd in assay [2] was found to be 0.534 nM; with Cyno EGFR it was 0.577 nM. For the same molecule, the “EGFR Depletion (%) on H441 cell, FACS” value with membrane EGFR on cells was determined as 65.9%.

B3: FIT023a cMet (h1332)/PD-L1 (1B12) (bispecific antibody, human IgG1, kappa)
chain 1: not shown
chain 2: QVQLVQSGAEVKKPGASVKVSCKASGYTFTSYGFSWVRQAPGQGLEWMGWISASNGNTYYAQKLQGRVTMTTDTSTSTAYMELRSLRSDDTAVYYCARVYADYADYWGQGTLVTVSSASTKGPSVFPLAPSSKSTSGGTAALGCLVKDYFPEPVTVSWNSGALTSGVHTFPAVLQSSGLYSLSSVVTVPSSSLGTQTYICNVNHKPSNTKVDKKVEPKSC
chain 3: not shown
notes: leader left out; also called FIT023a-Ig
In the case of B3, the figures for the Kd in assay [3] and in [4] were 0.731 nM and 1.49 nM, respectively.

B4: FIT017a DLL4 (demcizumab)/VEGF (bevcizumab) (bispecific antibody, human IgG1, kappa)
chain 1: not shown
chain 2: QVQLVQSGAEVKKPGASVKISCKASGYSFTAYYIHWVKQAPGQGLEWIGYISSYNGATNYNQKFKGRVTFTTDTSTSTAYMELRSLRSDDTAVYYCARDYDYDVGMDYWGQGTLVTVSSASTKGPSVFPLAPSSKSTSGGTAALGCLVKDYFPEPVTVSWNSGALTSGVHTFPAVLQSSGLYSLSSVVTVPSSSLGTQTYICNVNHKPSNTKVDKKVEPKSC
chain 3: not shown
notes: leader left out
Take B4: the Kd with VEGF amounted to 0.0365 nM.

B5: OKT3/Ofatumumab FIT7-Ig (bispecific antibody, human IgG1, kappa)
chain 1: not shown
chain 2: not shown
chain 3: not shown
notes: no linker; also called anti-CD3/CD20 FIT-Ig
Turning to B5, in [5], the “Binding Intensity by FACS (MFI)” value was found to be 159 MFI.

B6: PD-L1 antibody 1B12 (antibody, V domains shown)
VH: QVQLVQSGAEVKKPGSSVKVSCKTSGDTFSSYAISWVRQAPGQGLEWMGGIIPIFGRAHYAQKFQGRVTITADESTSTAYMELSSLRSEDTAVYFCARKFHFVSGSPFGMDVWGQGTTVTVSS
VL: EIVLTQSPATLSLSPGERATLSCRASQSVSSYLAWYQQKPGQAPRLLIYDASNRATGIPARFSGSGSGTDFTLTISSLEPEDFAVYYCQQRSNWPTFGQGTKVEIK
notes: parental mAb
Turning to B6, the figures for the Kd in assay [6], in assay [3] and in assay [7] were 9.08 nM, 0.708 nM and 0.402 nM, respectively.

B7: anti-CD20 mAb Ofatumumab (antibody, V domains shown)
VH: EVQLVESGGGLVQPGRSLRLSCAASGFTFNDYAMHWVRQAPGKGLEWVSTISWNSGSIGYADSVKGRFTISRDNAKKSLYLQMNSLRAEDTALYYCAKDIQYGNYYYGMDVWGQGTTVTVSS
VL: EIVLTQSPATLSLSPGERATLSCRASQSVSSYLAWYQQKPGQAPRLLIYDASNRATGIPARFSGSGSGTDFTLTISSLEPEDFAVYYCQQRSNWPITFGQGTRLEIK
notes: parental mAb
For B7, the binding result in assay [8] is on record as “no binding (tested: about 130 nM)”.

B8: OKT3/Ofatumumab FIT8-Ig (bispecific antibody, human IgG1, kappa)
chain 1: not shown
chain 2: not shown
chain 3: not shown
notes: GGGGSGS linker
With B8, the “Binding Intensity by FACS (MFI)” value in assay [5] stood at 211 MFI.

B9: Epratuzumab (antibody, V domains shown)
VH: QVQLVQSGAEVKKPGSSVKVSCKASGYTFTSYWLHWVRQAPGQGLEWIGYINPRNDYTEYNQNFKDKATITADESTNTAYMELSSLRSEDTAFYFCARRDITTFYWGQGTTVTVSS
VL: DIQLTQSPSSLSASVGDRVTMSCKSSQSVLYSANHKNYLAWYQQKPGKAPKLLIYWASTRESGVPSRFSGSGSGTDFTFTISSLQPEDIATYYCHQYLSSWTFGGGTKLEIK
notes: also called CD22 antibody Epratuzumab
With B9, in [9], the EC50 stood at 13.2 nM.

(Values after US20230220080A1 (EPIMAB BIOTHERAPEUTICS, published 2023).)
